Reference: patent US8883977B2, “MUC1 antibody” (Shionogi & Co., Ltd., priority 2010, dated 2014)

Target: T1, Biotin-STn(DT*R)-20 (Homo sapiens, UniProt P15941)
T1 construct: Synthesis of MUC1 Tn20-Mer Glycopeptide; made in house; host or cells: chemical solid-phase synthesis
Assay: Affinity of antibody, Biacore T100, Sensor Chip SA
Format: binding
Settings: Biotin-STn(DT*R)-20 on Sensor Chip SA; read-out: dissociation constant KD
Method: Biotin-STn(DT*R)-20 was solid-phased on a Sensor Chip SA (manufactured by GE Healthcare), and a dissociation constant of 12D10 was analyzed using Biacore T100.

T1 sequence (P15941 136-155): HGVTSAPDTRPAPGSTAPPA

- Kd: 9.1 nM
B1: 12D10: mouse monoclonal IgG2a anti-MUC1 antibody raised against STn(DT*R)-20-Cys-KLH; variable regions SEQ ID NOs 2 and 3 (protein)
chain 1: EVQLVESGGGLVQPGESLKLSCESNEYEFPSHDMSWVRKTPEKRLELVAAINSDGDNTYYPDTMERRFIISRDNSKKTLYLQMSSLNSADTALYYCARLTLRNWYFDVWGAGTTVTVSS
chain 2: DIVMSQSPSSLPVSVGEKVTMSCKSSQSLLYSTNQQNYLAWYQQKSGQSPKLLVYWASTRESGVPDRFTGSGSGTDFTLTISSLKAEDLAVYYCQQYYRYPPTFGAGTKLELNRA
